# Measured values published in US20170320960A1.
# Molecular target: hMFI2-ECD-His (extracellular domain of human MFI2, residues G20-C709, with Histidine tag) (human) (UniProt P08582)
# Assay: SPR (BIAcore 2000): antibody captured, monomeric MFI2-His flowed, 1:1 Langmuir fit; species not given, taken as hMFI2-His
# Chain of hMFI2-ECD-His (extracellular domain of human MFI2, residues G20-C709, with Histidine tag) (human) (P08582 20-709 limits assumed, form in doubt): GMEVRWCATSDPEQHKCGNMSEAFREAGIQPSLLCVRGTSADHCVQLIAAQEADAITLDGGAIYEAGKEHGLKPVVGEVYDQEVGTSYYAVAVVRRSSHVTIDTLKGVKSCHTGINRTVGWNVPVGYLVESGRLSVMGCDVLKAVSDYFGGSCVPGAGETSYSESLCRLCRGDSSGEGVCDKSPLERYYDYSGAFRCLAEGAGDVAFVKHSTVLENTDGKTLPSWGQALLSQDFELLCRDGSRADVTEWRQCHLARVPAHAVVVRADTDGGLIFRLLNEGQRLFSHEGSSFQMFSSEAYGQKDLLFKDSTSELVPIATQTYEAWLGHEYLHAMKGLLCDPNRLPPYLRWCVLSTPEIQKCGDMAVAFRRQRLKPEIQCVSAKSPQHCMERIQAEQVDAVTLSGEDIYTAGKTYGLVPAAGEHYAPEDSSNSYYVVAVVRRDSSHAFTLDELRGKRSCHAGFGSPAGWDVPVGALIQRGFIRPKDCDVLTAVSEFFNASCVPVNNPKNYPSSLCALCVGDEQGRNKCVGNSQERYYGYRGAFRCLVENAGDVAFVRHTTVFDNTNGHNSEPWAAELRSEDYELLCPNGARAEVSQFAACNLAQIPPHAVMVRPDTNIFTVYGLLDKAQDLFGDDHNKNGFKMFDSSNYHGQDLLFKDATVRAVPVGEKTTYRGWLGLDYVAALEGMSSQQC
row,Binder,Kd
1,"SC57.5 (antibody, V domains shown) VH: EVQLQQSGPELVKPGASVKISCKASGYSFTDYYLHWVKQSHVKSLEWIGRINPYNGATSYNQIFKDKASLTVDKSSSTAYMDLHSLTSEDSAVYYCARGGDYDFPWYWGQGTTLTVSP VL: DIVMTQSHKFMSTSVGDRVSITCKASQDVYAAVAWYHQKPGQSPKLLIYWASTRHAGVPDRFTGSGSGTDYTLTISSVQAEDLALYYCQQHYRTPWTFGGGTKLEIK",1.1 nM
2,"SC57.11 (antibody, V domains shown) VH: QVQLQQSGAELMKPGASVKISCKATGYTFSNYRIEWMKQRPGHGLEWIGEILPRTGNTNYNENFKGKATFTADTSSNTAYIQLSSLTSEDSAVYYCARDDGYYGRFAYWGQGTLVTVSA VL: DIQMTQTTSSLSASLGDRVTISCRASQDISSYLNWYQQKPDGTVKLLIYYTSRLHSGVPSRFSGSGSGTDYSLTINNLEQEDIATYFCQQGNTLPPTFGGGTKLEIK",3.2 nM
3,"hSC57.5 (antibody, human IgG1, kappa, V domains shown) VH: EVQLVQSGAEVKKPGESLKISCKGSGYSFTDYYLHWVRQMPGKGLEWMGRINPYNGATSYNQIFKDQVTISADKSISTAYLQWSSLKASDTAMYYCARGGDYDFPWYWGQGTTVTVSS VL: DIQMTQSPSSLSASVGDRVTITCKASQDVYAAVAWYQQKPGKAPKLLIYWASTRHAGVPSRFSGSGSGTDFTLTISSLQPEDFATYYCQQHYRTPWTFGQGTKVEIKR",4.4 nM
4,"SC57.46 (antibody, V domains shown) VH: QVQLKESGPGLVAPSQSLSITCTVSGFSLTSYGVHWVRQPPGKGLEWLGIIWAGGTTNYNSALMSRLSIRKDNSKSQVFLKMNSLQTDDTAMYYCARDRGYDGYFDYAVDYWGQGTSVTVSS VL: DIQMTQSPPSLSASVGETVTITCRTSENIYSYLTWYQQKQGKSPQLLVYNAKTLAEGVPSRFSGSGSGTQFSLKINSLQPEDFGSYYCQHHYGTPLTFGAGTKLELK",4.5 nM
